Data as given in article PMC4277623, “Synthesis and Preliminary Evaluation of a New ^99mTc Labeled Substance P Analogue as a Potential Tumor Imaging Agent” (Iranian Journal of Pharmaceutical Research : IJPR, 2015).
Read-outs that look alike come from different tables or passages of the source.

Assays:
[1] = Biodistribution in normal mice; assay type: in vivo; settings: for tissue uptake at 1 h / tissue uptake at 4 h / tissue uptake at 24 h: male, mouse, iv, total radioactivity
Protocol: Male albino mice in a weight range of18-24 g were used for normal mice treatments and malenude mice (6 to 8 weeks old) were used for in-vivo tumor treatments. The mice were housed at controlled room temperature (25 °C) in a 12 h light/12 h dark schedule. They were kept in standard cages with free access to food and water except during the experiments. The nude mice were grown and kept in isolated sterile condition. All animal experiments were carried out in compliance with our institutional ethical guidelines.
Freshly labeled ^99mTc-HYNIC-Tyr^8-Met(O)^11-SP (purity>98%) was diluted to 3.3 nmol/mL with normal saline and a dose of 800 µCi/ 330 pmol in 100 µL was injected to each mouse via the tail vein. Also agroup of three animals (blocked group) were given150 µg of SP in 50 µL salineco-injected with the radiopeptide to determine the non-specific biodistribution of the radiopeptide by blocking the receptor-positive organs. After 1, 4, and 24 h post injection the mice in groups of three animals were sacrificed and organs of interest were excised. All organs and tissues were weighed, and the radioactivity was determined by gamma counter. Results were expressed as percentage of injected dose per gram (% ID/g) of tissue.

[2] = Stability in aqueous solution; assay type: physicochemical; settings: reaction mixture at 25 °C up to 24 h; sampled 1, 4, 24 h; RP-HPLC
Protocol: (§1) The stability of radiolabeled peptide in aqueous solution was evaluated by incubation of the reaction mixture at room temperature (25 °C)up to 24 h.Stability in human serum at 37 °C was tested in parallel after adding 100 μL of reaction mixture to 1ml of fresh human serum. The incubation mixtures were sampled at 1, 4, and 24 h time points. Serum samples (100-200 μL) were treated with ethanol (200-400 μL) and centrifuged (4000 g, 5 min, 4 °C) to precipitate the serum proteins. 20-100 μL aliquots from the supernatant were separated to assess the degradation of ^99mTc labeled peptide by RP-HPLC (method I). 100 μL aliquots from the 25 °C incubated mixture were passed through a […] to eliminate possible ^99mTc colloids and then, 5-20 μL of filtrate were analyzed by RP-HPLC as well.

Stability in human serum = assay type: in vitro ADME; settings: fresh human serum, 37 °C, up to 24 h; sampled 1, 4, 24 h; ethanol precipitation; RP-HPLC
Protocol: as §1

U373MG cells = assay: Internalization and surface binding in U373MG cells; assay type: cell-based, human; settings: for total cell uptake: 37 °C, 2.5 pmol peptide per well, % of total activity per well, triplicates; for receptor specific cell uptake: total minus nonspecific (10000 fold excess unlabeled SP)
Protocol: All the main cell studies were performed on U373MG human Glioblastoma cell lines. Cells were cultured in DMEM was supplemented with L-glutamine, antibiotics (penicillin, streptomycine, gentamycine) and10% FBS. They were grown in culture until a sufficient number of cells were available. At proper times, cells were detached by trypsin-EDTA (0.25% and 0.02%) from the culture flask and diluted with fresh medium to start a new culture or the cell line tests.
Internalization of the ^99mTclabeled HYNIC-Tyr^8-Met(O)^11-SP was studied as previously described method([32], [33]) with some modifications. In brief, newly detached U373MG cells were seeded in six-well plates 12 h before the experiment. Their culture medium was replaced by 1.2 mL of previously warmed fresh medium and cells were allowed to adjust to the medium for 1 h at 37 °C, 5% CO2. In order to determine nonspecific internalization, one line of wells per plate was incubated with 10000 fold excess of unlabeled SP (25 nmol peptide in 150 μL PBS per well) at 37°C/5% CO2 for 15 min to block NK1Rs. Then about 150kBq (2.5 pmol peptide) in 150 μL diluted solution of freshly radiolabeled peptide was added to each of the wells and were incubated (in triplicates) for 0.5, 1, 2 and 4 h at 37 °C/5% CO2, respectively. As the final volume of blocked wells was 1.5 mL, the content volume of unblocked wells was adjusted to 1.5 mL by adding 150 μL PBS per well. At each time point, radioactive media were aspirated and wells were washed twice with cold PBS (1x, pH 7.2) to remove free radio peptides. After that, cells were treated with 1 mLGly buffer (0.2M, pH adjusted to 2.8 with 1 M HCl) at room temperature for 5 min (twice) to remove cell-surface bound radio peptide. Finally, the cells were detached from the plates by three steps incubation with 1N NaOH at room temperature for 5 min to determine the internalized radio peptide. All consequent fractions were measured with a NaI γ-counter and results were expressed as percentage of total activity per well (free + cell-surface bound + internalized). Nonspecific accumulations were subtracted from totals to determine the specific accumulations.

## CC(C)C[C@H](NC(=O)CNC(=O)[C@H](Cc1ccc(O)cc1)NC(=O)[C@H](Cc1ccccc1)NC(=O)[C@H](CCC(N)=O)NC(=O)[C@H](CCC(N)=O)NC(=O)[C@@H]1CCCN1C(=O)[C@H](CCCCN)NC(=O)[C@@H]1CCCN1C(=O)[C@H](CCCNC(=N)N)NC(=O)c1ccc(NN)nc1)C(=O)N[C@@H](CC[S+](C)[O-])C(N)=O (stereo partly shown) [^99mTc-HYNIC-Tyr^8-Met(O)^11-SP, metal not drawn]
[1]; Blood, 1 h p.i., i.v., mean ± SEM, n=3
  %ID/g Blood: 1.02±0.16 %ID/g
[1]; Blood, 4 h p.i., i.v., mean ± SEM, n=3
  %ID/g Blood: 0.36±0.03 %ID/g
[1]; Blood, decreased percent of %ID/g between 1 h and 4 h
  D% Blood: 65%
[1]; Bone, 1 h p.i., i.v., mean ± SEM, n=3
  %ID/g Bone: 0.44±0.03 %ID/g
[1]; Bone, decreased percent of %ID/g between 1 h and 4 h
  D% Bone: 55%
[1]; Heart, decreased percent of %ID/g between 1 h and 4 h
  D% Heart: 68%
[1]; Kidneys, decreased percent of %ID/g between 1 h and 4 h
  D% Kidneys: 35%
[1]; L. intestine, 1 h p.i., i.v., mean ± SEM, n=3
  %ID/g L. intestine: 1.14±0.09 %ID/g
[1]; L. intestine, 4 h p.i., i.v., mean ± SEM, n=3
  %ID/g L. intestine: 1.33±0.28 %ID/g
[1]; L. intestine, 24 h p.i., i.v., mean ± SEM, n=3
  %ID/g L. intestine: 0.37±0.06 %ID/g
[1]; L. intestine, decreased percent of %ID/g between 1 h and 4 h
  D% L. intestine: -17%
[1]; Liver, 1 h p.i., i.v., mean ± SEM, n=3
  %ID/g Liver: 0.58±0.04 %ID/g
[1]; Liver, 4 h p.i., i.v., mean ± SEM, n=3
  %ID/g Liver: 0.38±0.05 %ID/g
[1]; Liver, 24 h p.i., i.v., mean ± SEM, n=3
  %ID/g Liver: 0.16±0.02 %ID/g
[1]; Liver, decreased percent of %ID/g between 1 h and 4 h
  D% Liver: 34%
[1]; Lung, 1 h p.i., i.v., mean ± SEM, n=3
  %ID/g Lung: 0.94±0.19 %ID/g
[1]; Lung, 4 h p.i., i.v., mean ± SEM, n=3
  %ID/g Lung: 0.33±0.02 %ID/g
[1]; Lung, 24 h p.i., i.v., mean ± SEM, n=3
  %ID/g Lung: 0.17±0.04 %ID/g
[1]; Lung, decreased percent of %ID/g between 1 h and 4 h
  D% Lung: 65%
[1]; Muscle, 1 h p.i., i.v., mean ± SEM, n=3
  %ID/g Muscle: 0.32±0.07 %ID/g
[1]; Muscle, decreased percent of %ID/g between 1 h and 4 h
  D% Muscle: 72%
[1]; S. intestine, 1 h p.i., i.v., mean ± SEM, n=3
  %ID/g S. intestine: 2.13±0.17 %ID/g
[1]; S. intestine, 4 h p.i., i.v., mean ± SEM, n=3
  %ID/g S. intestine: 0.89±0.21 %ID/g
[1]; S. intestine, 24 h p.i., i.v., mean ± SEM, n=3
  %ID/g S. intestine: 0.24±0.04 %ID/g
[1]; S. intestine, decreased percent of %ID/g between 1 h and 4 h
  D% S. intestine: 58%
[1]; Salivary G., 1 h p.i., i.v., mean ± SEM, n=3
  %ID/g Salivary G.: 0.61±0.05 %ID/g
[1]; Salivary G., decreased percent of %ID/g between 1 h and 4 h
  D% Salivary G.: 57%
[1]; Spleen, decreased percent of %ID/g between 1 h and 4 h
  D% Spleen: 30%
[1]; Stomach, decreased percent of %ID/g between 1 h and 4 h
  D% Stomach: 75%
[1]; albino, 330 pmol per mouse, Stomach, 1 h p.i., i.v., mean ± SEM, n=3, read-out: %ID/g Stomach
  tissue uptake at 1 h: 1.57 ± 0.13 %ID/g
[1]; albino, 330 pmol per mouse, Stomach, 4 h p.i., i.v., mean ± SEM, n=3, read-out: %ID/g Stomach
  tissue uptake at 4 h: 0.39 ± 0.06 %ID/g
[1]; albino, 330 pmol per mouse, Stomach, 24 h p.i., i.v., mean ± SEM, n=3, read-out: %ID/g Stomach
  tissue uptake at 24 h: 0.15 ± 0.01 %ID/g
[1]; albino, salivary gland, 330 pmol per mouse, Salivary G., 4 h p.i., i.v., mean ± SEM, n=3, read-out: %ID/g Salivary G.
  tissue uptake at 4 h: 0.26 ± 0.02 %ID/g
[1]; albino, salivary gland, 330 pmol per mouse, Salivary G., 24 h p.i., i.v., mean ± SEM, n=3, read-out: %ID/g Salivary G.
  tissue uptake at 24 h: 0.2 ± 0.02 %ID/g
[1]; 800 uCi (330 pmol) per mouse, Blood, 24 h p.i., i.v., mean ± SEM, n=3, read-out: %ID/g Blood
  tissue uptake at 24 h: 0.14 ± 0.02 %ID/g
[1]; 800 uCi (330 pmol) per mouse, Bone, 4 h p.i., i.v., mean ± SEM, n=3, read-out: %ID/g Bone
  tissue uptake at 4 h: 0.2 ± 0.02 %ID/g
[1]; 800 uCi (330 pmol) per mouse, Bone, 24 h p.i., i.v., mean ± SEM, n=3, read-out: %ID/g Bone
  tissue uptake at 24 h: 0.07 ± 0.03 %ID/g
[1]; 800 uCi (330 pmol) per mouse, Heart, 1 h p.i., i.v., mean ± SEM, n=3, read-out: %ID/g Heart
  tissue uptake at 1 h: 0.55 ± 0.14 %ID/g
[1]; 800 uCi (330 pmol) per mouse, Heart, 4 h p.i., i.v., mean ± SEM, n=3, read-out: %ID/g Heart
  tissue uptake at 4 h: 0.17 ± 0.01 %ID/g
[1]; 800 uCi (330 pmol) per mouse, Heart, 24 h p.i., i.v., mean ± SEM, n=3, read-out: %ID/g Heart
  tissue uptake at 24 h: 0.06 ± 0.04 %ID/g
[1]; 800 uCi (330 pmol) per mouse, Kidneys, 1 h p.i., i.v., mean ± SEM, n=3, read-out: %ID/g Kidneys
  tissue uptake at 1 h: 21.2 ± 0.7 %ID/g
[1]; 800 uCi (330 pmol) per mouse, Kidneys, 4 h p.i., i.v., mean ± SEM, n=3, read-out: %ID/g Kidneys
  tissue uptake at 4 h: 13.8 ± 1.96 %ID/g
[1]; 800 uCi (330 pmol) per mouse, Kidneys, 24 h p.i., i.v., mean ± SEM, n=3, read-out: %ID/g Kidneys
  tissue uptake at 24 h: 5.47 ± 0.56 %ID/g
[1]; 800 uCi (330 pmol) per mouse, Muscle, 4 h p.i., i.v., mean ± SEM, n=3, read-out: %ID/g Muscle
  tissue uptake at 4 h: 0.09 ± 0.03 %ID/g
[1]; 800 uCi (330 pmol) per mouse, Muscle, 24 h p.i., i.v., mean ± SEM, n=3, read-out: %ID/g Muscle
  tissue uptake at 24 h: 0.04 ± 0.02 %ID/g
[1]; 800 uCi (330 pmol) per mouse, Spleen, 1 h p.i., i.v., mean ± SEM, n=3, read-out: %ID/g Spleen
  tissue uptake at 1 h: 0.4 ± 0.09 %ID/g
[1]; 800 uCi (330 pmol) per mouse, Spleen, 4 h p.i., i.v., mean ± SEM, n=3, read-out: %ID/g Spleen
  tissue uptake at 4 h: 0.28 ± 0.06 %ID/g
[1]; 800 uCi (330 pmol) per mouse, Spleen, 24 h p.i., i.v., mean ± SEM, n=3, read-out: %ID/g Spleen
  tissue uptake at 24 h: 0.13 ± 0.08 %ID/g
[2]
  stability in aqueous solution: good stability
Stability in human serum
  stability in human serum: good stability
U373MG cells; 0.5 h
  total cell uptake: 2.86 ± 0.10%
  receptor specific cell uptake: 1.71%
U373MG cells; 4 h
  total cell uptake: 4.91 ± 0.22%
  receptor specific cell uptake: 2.98%
U373MG cells; over 0.5-4 h
  ratio of specific uptake to total uptake: 60.21 ± 1.19%
